Reference: patent US20230220080A1

Biological target: B lymphoma cell lines Raji or Daudi (CD20 and CD22)
Test: FACS on Raji cells, Alexa Fluor 488 anti-human IgG1, MFI; binder is a 1:1 mixture

EC50: 3.25 nM
Substance: Epratuzumab/ Ofatumumab (1:1)
